Assay: soluble on expression in E. coli; label from the status in PepcDB or PDB records

Sequence	soluble on expression in E. coli
SQFKWSDFRILDRVSIGHGGRADELVFEAIVQVPDSPLFNQGVVLRKLNTTRAQRRGRRAIEVFKKLVRRRLLYHSYSMQVHGYITNNLSDDQYSFTLVHGCHGSFSIRHWLQQSDWIPTLEATLALDEESFRRVGDDTTGGPAVSRQLRLIRTLMRDILIGVNYLHSHGLAHTELRLENVHISPVDRHIKVGILGNAADFNGDVPSTSNAYSTMDRRQMMIAFDMRCVGFMMAKMVLQELMDPLIFAKLKSFLAKGNDPSSLREFFVTTLNTNSESGNTGVQILDRNWGAGWHLLSLLIATRPSERISCLDALKHPFLCGPRWRVAPSMDIIRWGLGSTAVKISEEYIYRMPQRQRLAHFIGLMEMLNPYPKPNCWLELLPGRWRLLYSTGKHIGLTLRQPSTRALIGNVHLTITRASESINNTSLSFTSDIRFTAITSKDWPHNKIGAAGKLQTLSQFRLIAGKRLYLKEEKKNIGKFSMGEPDAEEGLAEKLETEKWKKVVPFKEFPSSLPVAKLVSGEIEVTMNMNDHIDSPGSVIGEVRKQIPPEMFDLSKLVCGTYIDSRLLVLRCVNGSALLFTRSSLDHKSM	soluble
MGHHHHHHSHGSSAEIAATLGLPVVLVVDVRGMSQSVGAVVRGFATADPHVRIAGVILNKVGTDRHAEVCREAVEAVGVRVLGAIP	not soluble
MSSVPRFWRNLGSRYNLEGTRCKECGEYFYPPRNVCVNCRRMGELEPFKFKGTGEIVSYTLIHTGAEGFEGQAPYTLAIIKLDEGPRLTSQVVGNTDNIQIGTRVRSVFRKLGEDGERGMIYYGTKFVPVDALEHHHHHH	soluble
MLFSLKYLGMTLVEQPKGEELSAAAIKRIVATAKASGKKLQKVTLKVSPRGIILTDNLTNQLIENVSIYRISYCTADKMHDKVFAYIAQSQHNQSLECHAFLCTKRKMAQAVTLTVAQAFKVAFEFWQVSKEEKEKRDKASQEGGDVLGARQDCTPPLKSLVATGNLLDLEETAKAPLSTVSANTTNMDEVPRPQALSGSSVVWELDDGLDEAFSRLAQSRTNPQVLDTGLTAQDMHYAQCLSPVDWDKPDSSGTEQDDLFSF	soluble
MKQVAKGLQMEGNFGTAHVYRSSLNAIIAYRGKGDFTFHEVTPEWLKGFEIHLRGRGCSWNTVSTYLRTFRAVYNRAVDCRGAVYVPHLFRSVYTGTRADRKRALCDEDMQKVFAKLPSSPAVTPAMRRTQELFVLMFLLRGLPFVDLAYLRKSDLHDNVITYRRRKTGRPLSVTLTREAMVLLKRYMNRDSSSPYLFSLLESREGTKEAYREYQLALRSFNQQLLLLGQLLGLGDRLSSYTARHTWATTAYYCEIHPGIISEAMGHSSITVTETYLKPFRNKKIDEANQLVTDFVKRIVTGLIA	not soluble
MKEDTLLRKLVADGEGVGDDRKVQQIATFFRESRKEDAKTSVPEAVKVTKAIEEMYKKMEVAKNELADAKIVKRNRQEYRKLVNVLEEVPSRAETTRKLGEVKDDLERQHERQKVLEAKLMDRRNHLQAFMIILSNFQRFCAEDDDDDAEVMSNPGEDDDAASVTEKQQEDDVRK	not soluble
MSLNDRTTTHGETEPRSEQPGIRAAAGPGRWHDVELMAYKPDDAAPFRSVTRQVLFSDLRLGCEWRYFEVAEGGYSTLERHQHVHATMIHRGRGQCLVGDVISDVAVGDLVFIPPMTWHQFRANAGDVLGFLCLVNADRDRPQLPRPDELAVLRQNKAIASFIGAEAEGHHHHHH	soluble
MNIKRNIIFALESRKKDGVLIVENVPIRMRVNFASQRIEFTTGYRIDVAKWDADKQRVKNGCTNKLKQSASEINAALLGYYTELQEVFKRFEVAEVMPSPADVKSAFNARHRSDDVQTEQTSDKPDASAEFYKAFDEFVRVCGRQNDWTHATYEKFAAVKNHLRSFRADLSFSFFNEVGLTEYVRYLREVRKMRNSTIGKQLSFLKWFLRWSFGQGIHSNNAYDTFRPKLKDTQKKIIFLTWEELTKLREFEIPPAKQSLDRVRDVFLFQCFTGLRYSDVYNLRRSDIKEDHIEVTTIKTSDSLVIELNKHSKAILEKYQDVVFEHDKALPVITNQKMNEYLKELAELAGINEPIRQTYYKGNERIDEVTPKYALLGTHAGRRTFICNALALGIPPQVVMKWTGHSDYKAMKPYIDIADDIKANAMSKFNQL	not soluble
MQVMFYSPSGQKLFGENGSPAFLLKGGITDLKGAIEARTTVIPEVPGQVFDGVTIKPFTFGVTMVVYPTKEMPMEKAMRKTRQIFSAFDYSTCRIDGTGIPVGLKVRLDSIISAPSQDTAKEIAEEITITLAADEGIFWADRKEASGKIDIVNYGDCDLWPEYRWQKTTTITLPSGAKINLPETPTPRVLRTTRHQVSITDLDGKPDRELLKKLGTVWPEGVPRKETKTYEITQNGYIMWRIGYLDPWGL	not soluble
MIKRTLLLAMLPILAHAEELPAPVKAIEKQGITILKSFEAPGGMKGYLGKYQDMGVTIYLTPDGKHAISGYMYNEKGENLSNALIEKEIYAPAGREMWQKMEKASWILDGKKDAPVVLYVFADPFCPYCKQFWQQARPWVESGKVQLRTLLVGVIKPESPATAAAILAAKDPAKTWHDYEASAGKMKLEVPASIPPAQMKVINQNQQLMDDLGANATPAIYYMNKDKILQQVVGLPEKAQLDAMMGQP	not soluble
MSLADSTELTTSATLGAQDAMAFGISEDPAFFQILSANLYSNQKLAMVRETLCNSWDAHIEGNKTDIPIHVTIDKDGFLIFRDYGSGIPKDKIQEVYGVYGASTKKANTASTGGFGLGCKSPMAYTDSFTVTSMCDGTKTVYHIAKSSVETNGKPGIIPIVSVPTEESGLEVKIQLQSEDILEIDSYIRAIVLHGEIKCIYCNQYTGPNTVELLPVLGMSFEPGSYNLDHSTWHKYYMGGHSIFIRYGNVMYPALDTPATHEALKLVKQFMQVINCSRIVVQAAPSSLAVAPSRETLSSQKMTEDGIVNLAVALVDKMEADIKARLPNAIEYIGKAIKEYSPHRFEVNSYLPYTNLVPDVIVSRYMSSTLFSKQYAHLCKKWGNMEIDRQLEHPALAHFSGEGHHHHHH	soluble
MSLNELRKRVEIERSLHEAEFKALSYQINPHFLFNVLNTIGRLAFLEDAQRTETMVHDFSDMMRYLLRKNSHGLITLRNEINYVNNYMSIQKVRMRDRFDYLCDIPEKYLDVVCPFLILQPLVENFFNYVVEPRDSNSHLLIRATDDGLNVIIEVTDNGDGIAPDTINRILSGDQKLQKGSIGINNIKNRLKLLFGESYGLEIMSPNKPRMGTTIKLRFPMQEAEGHHHHHH	soluble
MIDEPTGLYNRLRLQEDVSLRLQRDGALTVIAADLLPLALLNTIIRTLGYPFSNDLMLEARDRIRAELPDFTLYKISPTRFGLLLPRQQQEETESVCLRLLRAFESPVVCRGIPIKANVGLGVLPLADDTLDGDQDWLRLVVSAADDARDRGVGWARYNPPLDQAQQRLEHHHHHH	soluble
MGSDKIHHHHHHMEPVYFTSPTRGRLTEDEMFADMMQFVDANPEAQYKIIIGSDSQARVRTCFVTAVIVHQVGRGARYYYRKKYQRKITSLRQKIFYETALSLETASFIAQRLAANGHADLNVEIHLDIGPNGETRDLIREIVGMVVGSGFAAKIKPYSCGASKVADKYTKSG	not soluble
MPAALLISGPCKICDLPAHGNHFGVLSCRACAAFFRRASRSPRFQDKACEYGDCRIFDAGAYRCKICRLKKCYKVGMDASKFQKDRDLISSSNAYLKRTKVYAPQSLANFLGRPEFIISFEPEKASPFKTVIDVTDLVHKAAEIFQEVKVIFWHKPTLHGPIDVFFASNFAVL	soluble
MTAINFNSIYTTYYRRAFLFTLSYVHNDLVAEDIVSEAIIYLWELSKKQEIPSIEAVLITYIRSKSLNYLKHLQVQENVYQNLTDKGQRELEIRISTLEACDPKEVMSEELRSKVKTLLAGMPEKTRIAFISDRLDGKSHKEIAEELGISVKGVEYHISKAVKLLRDNLKEYAPFLIFFI	not soluble
MAGPVFPWRDGNQFELLIDGPAFFPRMLLAIMRAEFQVDLELYLVEAGACAEAVVDALEQAARRGVRVRCLFDDYGSLAFNSALRQRLLDAGVYLRWYNRLRWKRGLRNLYRDHRKLLLVDERWAVVGGTGVTDEFWTPGEATSEWHEVMVQMQGPVVSDWQLLFDRQWQANNRRTAWRPAEGFGLPRLPKVPAQGQGMGRVAYADARQHQDILHALVRALNSGQKRVWLATPYFLPTWSVRRSLRRAASKGLDVRLLLTGPRTDHPSVRYAGHRYYPRLLRAGVRIFEYQPCFLHLKMAVVDDWVSVGSCNFDHWNLRFNLEANIEALDPPLTAAVVASFERDFAQSEEVDLAHWHARPWWRRVKQRIWGWLDRLVVNFLDRRD	not soluble
MKYYRRALYDKFVHFYLVISDDGSSEAQLRGKMGGLVRKARKKISPDWPKEEQIHQLLQLFYGDWGFHCDPEDYFYARNLYLPYVFEHRQGMPVTLGAMVFYLAEALDLPIYPVNFPTQLILRAEVRDEVAFIDPWDGTYISQEKLQQLYEGAFGFGAKIQPEELDRADLSLLYSRFEQLAKNALIREEHNDMAYHYIKNLMITDAENPYHIRDRGLVLAQMGAYPSALKDLEFFVEHCPKDPTAAFIRTQLLELKGEINKDTFPLHLEHHHHHH	not soluble
MADKRIRSDSSAAAVQAMKNAAVDTIDPPSHAGLEKKAEPFWHDNIRSKALDSWTPADLLAAVELANNQLYITVLRKDLRKEERIRGEERDEGLIKDLRKQIVELQRTILAQRRDLQIHSHATNGESRDQKKRNQNDRDARNTKNEHQDQDDNLIAFPKHG	not soluble
MAHHHHHHMLAPTVTREACQPIINAFRCAAEKGQTQTDVDAESWGREVTRINAEAQKAWSEQRKPFIPAMYLRRRDPAAEEALRLLRVTSKAFELNLRFREIEKLDEMHAKLWALLSADKTRLTITIIEYMEILKKFKAWQEERFEGTPKASPQREASVQSSQECLDDTTPLGSVVYLASVMQPRPSLQLYLSCPRSPAGGVEVVHIYQRFAKQVSLVKCEAELIMWDTNNDGCLTEDEMESYVRDLVPRIEALRDITEDILPFYCCTVSRRIFWVLDPGSRGAIRIDMLLQNPVMDEWVSLQLMREDQPRNWFSAAITSHLYDKFLLLDTRNRGTLNADDMKRYKKGLPTVMDDGLPPGVGPLSSLFIDRFFETNVMMANSELDFRKFVDFVVAVEFLPSCQRPLFFWNILDIEGCGYLKPVHVNYFFRETHTKLVAAGLEVPSRETVVQEAFDLISTAEPLCISREEFINAPQAGLFVALLVDCLSFWTYENREQR	not soluble
MRGEKRTFEMLTNEVEYQHYRFSFANNPATAAGIFQLAEIELTVVADAPLVDFASNISRAEIGENVQFWDRSLANPTGWQWTFEDGEPATSTNRNPAVTFTSLGAKSVTLVASNDKGSNEKVQEQVVHIWDSQNPWAGYVKPTVTLVAHKPEHEGQIAFSRVMPDIEAVIHDISLQIVKVLYKDVAEAPLFKTVTFETDEYDFPAAKSGTDEDMILMMDVAHLANKAAEGDDALRDEVIGMLWHELTHGYNNSPNSGEYATGDEYHSYLESLANYMRIKAGFHESRRVGIKWVDNWNVDAYEQTSFFLEWVANSHRSVDFIYLFNKAAGDLKEWSFEAAFKSIFGEDKGVSIFWQEYHDAQGIEPPYPTPVDGYRNFAVDEGVSISTNATTVIIPDWDAYEGEDKLIDNNVTKKFNAFIEGTWWLEEHASHLFPINDITNVEVTFELPDAIVLHKYSVTTGNDNPQRDPTLWTISGSVDGEVWTQLDSDNYPSDPERLITFHYDIDDAVTAYKYYQFVFENTQPAGDSIGGDNGRLVQIGEIALLTEELEHHHHHH	not soluble
